From publication PMC7207076 (Biochemistry, 2020)
Non-standard residues stand in square brackets, D forms with d. No end group written: not given here. Lys(Me3) = C[N+](C)(C)CCCC[C@H](N)C(=O)O

Key:
[1] = molecular target: T1, KDM5A1–797 (Homo sapiens, UniProt P29375); type: biochemical; details: for KDM5A1–797 activity normalized to the 18mer WT peptide reaction (100%): H3K4me3 basic patch mutant/deletion peptides
T1 sequence (P29375 1-797): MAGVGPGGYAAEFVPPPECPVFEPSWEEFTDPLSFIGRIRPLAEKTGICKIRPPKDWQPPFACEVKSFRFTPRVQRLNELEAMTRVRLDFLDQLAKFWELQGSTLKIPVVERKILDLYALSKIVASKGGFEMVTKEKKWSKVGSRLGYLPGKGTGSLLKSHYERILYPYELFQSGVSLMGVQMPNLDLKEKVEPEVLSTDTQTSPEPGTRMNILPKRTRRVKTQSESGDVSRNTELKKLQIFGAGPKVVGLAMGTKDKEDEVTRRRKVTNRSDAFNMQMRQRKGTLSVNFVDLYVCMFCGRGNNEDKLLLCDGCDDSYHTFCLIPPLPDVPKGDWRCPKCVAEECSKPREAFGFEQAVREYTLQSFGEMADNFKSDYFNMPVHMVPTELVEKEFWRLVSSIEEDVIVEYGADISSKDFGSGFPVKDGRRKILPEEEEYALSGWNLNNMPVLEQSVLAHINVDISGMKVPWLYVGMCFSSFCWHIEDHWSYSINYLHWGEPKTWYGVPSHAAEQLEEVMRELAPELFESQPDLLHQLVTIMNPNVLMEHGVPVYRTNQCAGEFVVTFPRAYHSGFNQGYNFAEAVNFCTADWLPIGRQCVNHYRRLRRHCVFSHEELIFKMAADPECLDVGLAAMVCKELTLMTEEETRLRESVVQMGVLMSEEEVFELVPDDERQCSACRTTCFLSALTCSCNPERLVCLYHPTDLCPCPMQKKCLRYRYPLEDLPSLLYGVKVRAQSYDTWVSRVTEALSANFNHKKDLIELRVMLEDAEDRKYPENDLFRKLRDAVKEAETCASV

[2] = molecular target: T1, KDM5A1–797; type: biochemical; details: for fold increase of KMapp compared to the 18mer WT peptide: H3K4me3 basic patch (K14-K18) deletion/mutant/acetylated peptides; for kcat: 21mer H3K4me3 peptide substrates, saturating (20 μM) effector peptide (unmodified H3 10mer, aa 1–10), means ± SEM of two independent experiments, SEM; for fold increase of KMapp relative to 21mer WT peptide: 21mer H3K4me3 peptides, PHD1 domain saturated with effector peptide

Substance	kcat [2] [s⁻¹]	fold increase of KMapp relative to 21mer WT peptide [2]	other results
13mer: 13mer H3K4me3 peptide lacking the K14-K18 basic patch (ARTKQTARKSTGG; K4me3; UniProt P68431 2-14, looked up, fragment)			KDM5A1–797 activity normalized to the 18mer WT peptide reaction (100%) ([1]; two independent experiments): 28%−35%; fold increase of KMapp compared to the 18mer WT peptide [2]: 8 fold
18mer-K14A/R17A/K18A: 18mer H3K4me3 peptide, K14A/R17A/K18A triple mutant (ART[Lys(Me3)]QTARKSTGGAAPAA; UniProt P68431 2-19, looked up, variant K14A R17A K18A)			KDM5A1–797 activity normalized to the 18mer WT peptide reaction (100%) ([1]; two independent experiments): 28%−35%; fold increase of KMapp compared to the 18mer WT peptide [2]: 8 fold
H3K18me3 (aa 12—32): H3 peptide aa 12—32 trimethylated at K18			demethylation of H3K18me3 peptide by KDM5A1—797 ([1]; peptide incubated with KDM5A1—797 (Figure S3)): no demethylation was detected
K9A: 21mer H3K4me3 peptide with K9A mutation	0.061 ± 0.002		
Q5A: 21mer H3K4me3 peptide with Q5A mutation	0.056 ± 0.003	> 30 fold	KDM5A1–797 activity normalized to the 21mer H3K4me3 WT peptide reaction (100%) ([1]; 21mer H3K4me3 alanine mutant peptides, two independent experiments): ~ 20%
R2A: 21mer H3K4me3 peptide with R2A mutation	0.069 ± 0.002	~ 12 fold	fold rescue in demethylation in the presence of the effector peptide ([1]; 20 μM effector (unmodified 10mer H3 peptide), 21mer H3K4me3 mutant peptide): ~ 3 fold
R8A: 21mer H3K4me3 peptide with R8A mutation	0.054 ± 0.002	~ 4 fold	
T3A: 21mer H3K4me3 peptide with T3A mutation	0.056 ± 0.001		
T6A: 21mer H3K4me3 peptide with T6A mutation	0.075 ± 0.004	~ 8 fold	
T6S: 21mer H3K4me3 peptide with T6 mutated to serine	0.070 ± 0.002		
T6V: 21mer H3K4me3 peptide with T6 mutated to valine	0.050 ± 0.003	3 fold	
WT: H3 N-terminal 21mer (aa A1-A21) H3K4me3 wild-type peptide substrate	0.052 ± 0.001		
